In this experiment the target is mAb Mac2-158. The experiment in a line: circular peptide array.
Regarding CRGNESALWD (modifications not checked), the rank of binding signal was determined as 11 rank.

Turning to VQEEWGTVCNNGW (modifications not checked), the rank of binding signal was found to be 18 rank.

Regarding EEWGTVCNNGWSM (modifications not checked), the rank of binding signal was 14 rank.

In turn, WGTVCNNGWSMEA (modifications not checked) showed a rank of binding signal of 12 rank.

For the molecule CSGRVEVKVQEEW (modifications not checked), the rank of binding signal is 7 rank.

The molecule NESALWDCKHDGW (modifications not checked) yielded a rank of binding signal of 13 rank.

SCRGNESALW (modifications not checked) yielded a rank of binding signal of 3 rank.

Consider EWGTVCNNGWSME (modifications not checked), for which the rank of binding signal turned out to be 4 rank.

Turning to DHVSCRGNESALW (modifications not checked), the rank of binding signal came out at 8 rank.

In turn, VSCRGNESALWDC (modifications not checked) registered a rank of binding signal of 5 rank.

The molecule EWGTVCNNGW (modifications not checked) returned a rank of binding signal of 19 rank.

Regarding ALWDCKHDGW (modifications not checked), the rank of binding signal was 6 rank.

In the case of ESALWDCKHDGWG (modifications not checked), the rank of binding signal amounted to 17 rank.

For the molecule ESALWDC (modifications not checked), the rank of binding signal amounted to 1 rank.

The molecule RGNESALWDC (modifications not checked) had a rank of binding signal of 2 rank.

In turn, QEEWGTVCNNGWS (modifications not checked) gave a rank of binding signal of 9 rank.

The molecule WGTVCNNGWS (modifications not checked) had a rank of binding signal of 20 rank.

These data come from patent US20250213707A1, “COMPOUND FOR INCREASING EFFICACY OF ONCOLYTIC VIRUSES” (ABLEVIA BIOTECH GMBH, priority 2022, published 2025).
